The labels stand for the following.
B1: Cell division control protein 13 (Saccharomyces cerevisiae), P32797 (parent)
chain: MDTLEEPECPPHKNRIFVSSSKDFEGYPSKAIVPVQFVALLTSIHLTETKCLLGFSNFERRGDQSQEDQYLIKLKFKDRGSERLARITISLLCQYFDIELPDLDSDSGASPTVILRDIHLERLCFSSCKALYVSKHGNYTLFLEDIKPLDLVSVISTISTKSTNSSKHSSSELISECDLNNSLVDIFNNLIEMNRDEKNRFKFVKLIHYDIELKKFVQDQQKVLSQKSKAAAINPFFVPNRLGIPYIESQNEFNSQLMTLNVDEPTTDISNMGEEMHDSADPIEDSDSSTTSSTGKYFSSKSYIQSQTPERKTSVPNNWHDDDSGSKRKRKLSFHSPNASSIRKAISYEQLSLASVGSVERLEGKIVGMNPPQFASINEFKYCTLKLYFTQLLPNVPDKVLVPGVNCIEIVIPTRERICELFGVLNCQSDKISDILLLEKPDRISVEVERILWDNDKTASPGMAVWSLKNISTDTQAQAQVQVPAQSSASIDPSRTRMSKMARKDPTIEFCQLGLDTFETKYITMFGMLVSCSFDKPAFISFVFSDFTKNDIVQNYLYDRYLIDYENKLELNEGFKAIMYKNQFETFDSKLRKIFNNGLRDLQNGRDENLSQYGIVCKMNIKVKMYNGKLNAIVRECEPVPHSQISSIASPSQCEHLRLFYQRAFKRIGESAISRYFEEYRRFFPIHRNGSHLAKLRFDEVKHEPKKSPTTPALAEHIPDLNADVSSFDVKFTDISSLLDSSARLPRPQQTHKSNTLYSCEGRIIAIEYHASDLCFHITNELPLLQTRGLAPERVLQLHIITSKNFAYFFNRSSAYLQRQPLEEKYTQLAQFLGHSFKFNITSSLTLFPDTTVALQIWCPIECTFRELQQQLAHPKVAAAPDSGSLDCAINATVNPLRLLAAQNGVTVKKEEDNDDDAGAVPTS

This experiment covers variants of B1. As to conditions: with cdk1_yeast CDC28, P00546.
Sequence of cdk1_yeast CDC28, P00546 (P00546 whole entry, looked up): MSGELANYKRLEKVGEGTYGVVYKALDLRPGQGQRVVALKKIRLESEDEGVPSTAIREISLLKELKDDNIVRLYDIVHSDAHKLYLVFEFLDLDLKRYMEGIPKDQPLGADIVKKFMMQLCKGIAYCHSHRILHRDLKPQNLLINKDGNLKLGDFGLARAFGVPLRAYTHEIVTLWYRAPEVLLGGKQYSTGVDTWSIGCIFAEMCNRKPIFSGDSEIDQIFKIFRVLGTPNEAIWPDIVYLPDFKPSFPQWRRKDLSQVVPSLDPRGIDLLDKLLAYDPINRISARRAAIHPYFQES
Turning to T308A;S336A, the “effect of a mutation on the interaction” value is “disrupting interaction”.
Then T308A, with “decreasing interaction”.

The values are drawn from IntAct's records for PubMed 19135888.
